This is an account of results in patent US20200062856A1 (XDCEXPLORER SHANGHAI, published 2020).

The target of assay [1] is human TPBG protein, full-length, on the cell surface (human) (UniProt Q13641). Nature of the assay: FACS, HEK293 clone 293F-hTPBG 5G8. For orientation: Flow cytometry measures light scatter and fluorescence of single cells or particles in a stream.
For assay [2] the target is unchanged. Nature of the assay: FACS, HEK293 clone 293F-hTPBG 4E1 (NO 8).
Assay [3] shares this target. Nature of the assay: FACS, HEK293 clone 293F-hTPBG 5H6.
Assay [4] has the same target. Nature of the assay: FACS, HEK293 clone 293F-hTPBG 5E5.
The target is the same in assay [5]. Briefly: FACS, HEK293 clone 293F-hTPBG 4G6.
The target is the same in assay [6]. Briefly: FACS, HEK293 clone 293F-hTPBG 4C5.
For assay [7] the target is unchanged. Nature of the assay: FACS, HEK293 clone 293F-hTPBG 4G1.
The target is the same in assay [8]. Briefly: FACS, HEK293 clone 293F-hTPBG 5G11.
The target is the same in assay [9]. Nature of the assay: FACS, HEK293 clone 293F-hTPBG 5C12.
The target is the same in assay [10]. Briefly: FACS, HEK293 clone 293F-hTPBG 5D4.
The target of assay [11] is cynomolgus TPBG protein, full-length, on the cell surface (cynomolgus) (UniProt Q4R8Y9). Briefly: FACS, CHOk1-cTPBG 3F13G4 cells.
The target of assay [12] is human TPBG protein, full-length, on the cell surface (human) (UniProt Q13641). Briefly: FACS, HEK293 clone 293F-hTPBG 5A9.
Assay [13] has the same target. Nature of the assay: FACS, HEK293 clone 293F-hTPBG 5A11.
The target in assay [14] is mouse TPBG protein, full-length, on the cell surface (mouse) (UniProt Q9Z0L0). Briefly: FACS, CHOk1-mTPBG 3A3 cells.
Assay [15] has as its target human TPBG protein, full-length, on the cell surface (human) (UniProt Q13641). Briefly: FACS, HEK293 clone 293F-hTPBG 4A9.
Assay [16] has the same target. Briefly: FACS, CHOk1-hTPBG 3A2F1 cells.
Assay [17] shares this target. Briefly: FACS, HEK293 clone 293F-hTPBG 4A8.
Assay [18] shares this target. Nature of the assay: FACS, HEK293 clone 293F-hTPBG 4F9.
The target is the same in assay [19]. Nature of the assay: FACS, HEK293 clone 293F-hTPBG 4C3.
Assay [20] shares this target. Nature of the assay: FACS, HEK293 clone 293F-hTPBG 5E6.
For assay [21] the target is unchanged. Nature of the assay: FACS, HEK293 clone 293F-hTPBG 4E1.
The target is the same in assay [22]. Briefly: FACS, HEK293 clone 293F-hTPBG 4H12.
Assay [23] shares this target. Nature of the assay: FACS, HEK293 clone 293F-hTPBG 4B9.
The next assay has as its target T1, human TPBG-hFc protein (human, UniProt Q13641 32-355).
T1 construct: range 32-355; Expressed in HEK293 cells, purified on protein A; also called immunogen A; hFc tagged TPBG protein; not shown: human IgG Fc fragment of the pCpC vector
T1 sequence (looked up): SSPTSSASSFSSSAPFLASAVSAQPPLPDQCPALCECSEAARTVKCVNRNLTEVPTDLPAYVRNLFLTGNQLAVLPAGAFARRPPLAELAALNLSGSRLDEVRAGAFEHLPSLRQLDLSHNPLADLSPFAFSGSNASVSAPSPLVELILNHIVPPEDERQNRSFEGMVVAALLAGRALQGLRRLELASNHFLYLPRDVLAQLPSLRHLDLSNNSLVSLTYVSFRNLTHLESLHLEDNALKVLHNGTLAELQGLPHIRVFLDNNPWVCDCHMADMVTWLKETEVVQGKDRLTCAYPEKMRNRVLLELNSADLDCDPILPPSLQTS
Nature of the assay: ELISA, coated human TPBG-hFc. In a few lines:
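Plates coated overnight at 4° C. with human TPBG-hFc at 1.0 μg/mL, blocked with PBS/0.01% Tween 20/1% BSA, then purified humanized antibody variants bound 2 h at 37° C. HRP-labeled secondary antibody (2 h, 37° C.) with TMB detection, acid stop, A450 read. EC50 derived from OD450 values.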
A general note: ELISA stands for enzyme-linked immunosorbent assay.

For assay [24], the target named is T2, human TPBG antigen immobilized on a CM5 chip (human, UniProt Q13641 32-355, limits assumed).
T2 sequence (looked up): T1 sequence (looked up)
Briefly: SPR (Biacore), human TPBG antigen immobilized on CM5 chip. The procedure: To assess the binding specificity and affinity of the humanized anti-TPBG antibody, Biacore analysis was performed using human TPBG antigen immobilized on a CM5 chip. Biacore technique utilizes the change in the refractive index of surface layer after antibody binding to the TPBG antigen immobilized on the surface layer. The binding was determined by surface plasmon resonance (SPR) through detecting the laser refracted from the surface. Non-specific and specific interactions were distinguished by analysis of signal kinetics binding rate and dissociation rate. Chimeric antibodies 12B12 and 28D4 were used as controls.
In general terms: In SPR one partner is held on a chip, and binding of the other changes the refractive index at the surface.

For assay [25], the target named is T3, human TPBG protein, full-length, on the cell surface (human, UniProt Q13641 32-420).
T3 construct: whole, on cells; Transfected HEK293 (293F-hTPBG clones) and CHO-k1 (CHOk1-hTPBG 3A2F1) cells; also used here for endogenous TPBG on the TPBG-positive tumour lines NCI-H1568, NCI-H1975 and MDA-MB-468 in the killing assays; also called hTPBG; 5T4
T3 sequence (looked up): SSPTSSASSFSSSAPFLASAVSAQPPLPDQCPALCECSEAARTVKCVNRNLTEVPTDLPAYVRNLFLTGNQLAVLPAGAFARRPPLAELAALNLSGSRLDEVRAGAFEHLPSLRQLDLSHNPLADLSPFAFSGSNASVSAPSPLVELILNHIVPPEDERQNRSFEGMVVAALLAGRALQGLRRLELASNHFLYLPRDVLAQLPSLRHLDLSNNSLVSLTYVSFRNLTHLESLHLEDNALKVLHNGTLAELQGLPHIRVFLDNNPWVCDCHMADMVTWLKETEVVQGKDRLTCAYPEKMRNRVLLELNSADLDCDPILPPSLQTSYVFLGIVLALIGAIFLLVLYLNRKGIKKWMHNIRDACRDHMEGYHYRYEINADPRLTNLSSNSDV
Nature of the assay: FACS on CHOK1-hTPBG cells.

Assay [26] deals with T4, cynomolgus TPBG protein, full-length, on the cell surface (cynomolgus, UniProt Q4R8Y9 35-420).
T4 construct: whole, on cells; also called cTPBG; CHOk1-cTPBG
T4 sequence (looked up): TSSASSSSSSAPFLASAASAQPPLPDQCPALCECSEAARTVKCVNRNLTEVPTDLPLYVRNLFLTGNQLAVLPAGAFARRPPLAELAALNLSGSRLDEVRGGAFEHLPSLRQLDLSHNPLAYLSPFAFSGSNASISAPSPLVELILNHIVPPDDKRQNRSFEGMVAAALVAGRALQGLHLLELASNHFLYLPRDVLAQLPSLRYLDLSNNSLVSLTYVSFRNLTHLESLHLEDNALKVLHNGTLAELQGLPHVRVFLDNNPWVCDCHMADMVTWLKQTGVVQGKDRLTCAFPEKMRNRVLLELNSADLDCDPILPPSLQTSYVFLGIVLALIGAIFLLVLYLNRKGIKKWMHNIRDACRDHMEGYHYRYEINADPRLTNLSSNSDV
Briefly: FACS on CHOK1-cTPBG cells.

Assay [27] addresses T5, mouse TPBG protein, full-length, on the cell surface (mouse, UniProt Q9Z0L0 32-426).
T5 construct: whole, on cells; also called mTPBG; CHOk1-mTPBG
T5 sequence (looked up): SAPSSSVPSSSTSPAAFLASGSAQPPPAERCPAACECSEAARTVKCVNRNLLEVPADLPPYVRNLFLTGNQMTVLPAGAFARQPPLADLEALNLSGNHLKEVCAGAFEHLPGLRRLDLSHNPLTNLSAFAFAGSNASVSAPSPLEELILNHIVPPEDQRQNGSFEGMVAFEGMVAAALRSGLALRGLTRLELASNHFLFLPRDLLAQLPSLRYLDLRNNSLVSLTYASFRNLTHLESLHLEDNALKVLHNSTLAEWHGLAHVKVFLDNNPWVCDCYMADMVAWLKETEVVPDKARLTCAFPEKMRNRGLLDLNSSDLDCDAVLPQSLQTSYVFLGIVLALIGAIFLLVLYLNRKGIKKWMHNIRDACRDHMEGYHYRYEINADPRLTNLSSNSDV
Nature of the assay: FACS on CHO-k1 cells with surface-expressed mouse TPBG, fluorescent secondary antibody, mean fluorescence intensity.

Positions count from the first letter of the chain named. Some results are limits rather than exact numbers.

In the case of “commercially available TPBG antibody (purchased from Sigma, Lot NO: SAB1404485)”, the Cellular MFI in assay [1] amounted to 168 MFI; in assay [2], 91.8 MFI; in assay [3] it was 36.4 MFI; in assay [4], 280 MFI; in assay [5], 31.8 MFI; in assay [6], 172 MFI. Further, the Cellular MFI in assay [7] came to 131 MFI; in assay [8] it was 11.3 MFI; in assay [9] it was 75.4 MFI; in assay [10], 70.6 MFI; in assay [11], 198 MFI; in [12], 53.2 MFI. The Cellular MFI worked out at 166 MFI in [13]; 135 MFI in assay [14]; 204 MFI in assay [15]; 798 MFI in [16]; 33.4 MFI in [17]; 47.7 MFI in [18]. The Cellular MFI in assay [19] is 27.2 MFI; in assay [20], 13.2 MFI; in assay [21], 145 MFI; in assay [22], 9.5 MFI; in assay [23], 126 MFI.

B1: Humanized antibody 12B12-12 (antibody, V domains shown)
VH: EVQLVESGGGLVQPGGSLRLSCAASGFTFSNFGMHWVRQAPGKGLEWVSYISSGSTSFYYADTVKGRFTISRDNAKNSLYLQMNSLRDEDTAVYYCARTNSLLRGFFDAWGQGTTVTVSS
VL: DIVLTQTPLSLSVTPGQPASISCRASQSVSSSSYTYLHWYLQKPGQPPQLLIKSASNLESGVPDRFSGSGSGTDFTLKISRVEAEDVGVYYCQHSWEIPLTFGQGTKLEIK
notes: also called h12B12-12
Regarding B1, the EC50 (as a rule, the concentration that produces a half-maximal response) with human TPBG-hFc protein was found to be 0.206 nM. In assay [24], binding was characterised by a dissociation constant (Kd) of 0.0186 nM; the koff – broadly, a measure of how fast the partners let go of each other – turned out to be 2.29e-05 s⁻¹; the kon (usually a measure of how fast the partners come together) stood at 1.23e+06 M⁻¹ s⁻¹. In assay [25], this molecule showed a half-maximal effective concentration (EC50) of 0.33 nM. This molecule had an EC50 in assay [26] of 10.3 nM. In assay [27], the binding result was “no binding (tested: 100 nM)”.

B2: Humanized antibody 12B12-15 (antibody, V domains shown)
VH: B1 VH with L11V, G16R, S49A, A75S, S78T, D88A
VL: B1 VL
notes: also called h12B12-15
With B2, the EC50 came to 0.193 nM with human TPBG-hFc protein, 0.37 nM in assay [25] and 0.87 nM in assay [26]. Besides, in assay [24], the Kd (in general, the equilibrium constant for the complex coming apart) was under 0.00566 nM. The molecule also showed a koff in [24] of under 1e-05 s⁻¹. The kon in [24] worked out at 1.77e+06 M⁻¹ s⁻¹. Further, the binding result in assay [27] is “no binding (tested: 100 nM)”.

B3: Chimeric antibody 12B12 (antibody, V domains shown)
VH: DVQLVESGGGLVQPGGSRKLSCAASGFTFSNFGMHWVRQAPEKGLEWVAYISSGSTSFYYADTVKGRFTISRDNPKNTLFLQMTSLRSEDTAMYYCSRTNSLLRGFFDAWGAGTTVTVSS
VL: DIVLTQSPASLAVSLGQRATISCRASQSVSSSSYTYLHWYQQKPGQPPKLLIKSASNLESGVPARFSGTGSGTDFTLNIHPVEEEDTATYYCQHSWEIPLTFGAGTKLELK
notes: Mouse variable domains on human IgG1 heavy and human kappa light constant regions; also called c12B12; TPBG chimeric antibody 12B12
B3 showed an EC50 with human TPBG-hFc protein of 0.137 nM. In assay [24], this molecule displayed an equilibrium dissociation constant (Kd) of 0.0102 nM, a koff of 1.64e-05 s⁻¹ and a kon of 1.61e+06 M⁻¹ s⁻¹. In [25], the EC50 turned out to be 0.33 nM. Besides, in assay [26], the EC50 turned out to be 0.67 nM. Besides, the binding result in assay [27] was “no binding (tested: 100 nM)”.
